Measurements as given in US20230235058A1 (OXFORD UNIVERSITY INNOVATION, published 2023).
Substitutions are numbered along the chain they refer to. Numbers in names are those of the source.

B1: 12F11 (antibody, IgG1, V domains shown)
VH: EVQLQQSGPELVKPGASVKISCKASGYTFTDYYMNWVKQSHGKSLEWIGDINPNNGGTSYNQKFKGKATLTVDKSSSTAYMELRSLTSEDSAVYYCARWRQLRSDYWGQGTTLTVSS
VL: DIQMTQSPASQSASLGESVTITCLASQTIGTWLAWYQQKPGKSPQLLIYAATSLADGVPSRFSGSGSGTKFSFKISSLQAEDFVSYYCQQLYSTPLTFGAGTKLELK
notes: mIgG1
B2: 4D5 (antibody, IgG1, V domains shown)
VH: QIQLVQSGPELKKPGETVKISCKASGYTFTTYGVSWVKQAPGKVLKWMGWINTYSGVPTYADDFKGRFAFSLETSASTAYLQISNLKNEDTATYFCAPVTTILHWYFDVWGTGTTVTVSS
VL: DIQMTQSPSSLSASLGERVSLTCRASQEISGYLSWLQQKPDGTIKRLIYAASTLDSGVPKRFRGSRSGSDYSLTISSLESEDFADYYCLQYASYPFTFGSGTKLEIK
notes: mIgG1
B3: 4H4 (antibody, IgG1, V domains shown)
VH: QVQLQQSGAELARPGASVKLSCKASGYTFTSYGISWVKQRTGQGLEWIGEIYPRSGNTYYNEKFKGKATLTADKSSSTAYMELRSLTSEDSAVYFCARRRGAGDGFDYWGQGTTLTVSS
VL: DIQMTQTTSSLSASLGDRVTISCSASQGISNYLNWYQQKPDGTVKLLIYYTSSLHSGVPSRFSGSGSGTDYSLTISNLEPEDIATYYCQQYSKLPFTFGSGTKLEIK
notes: mIgG1
B4: 4B1 (antibody, IgG1, V domains shown)
VH: B3 VH with K19R, I34L, S35I, V37L, N57S, K63W, S77N, Y80F, A102T, T114I
VL: B3 VL with S92I, K93E
notes: mIgG1
B5: 8B4 (antibody, IgG1, V domains shown)
VH: B3 VH with S21P, N57T, R100I, G101S, A102S, D104S, F106V
VL: B3 VL with K93E, F96W, S100G
notes: mIgG1
B6: 7A1 (antibody, IgG1, V domains shown)
VH: QVQLQQSGPELVKPGASVKISCKASGYAFSSSWMNWVKQRPGKGLEWIGRIYPGDGDTNYNGKFKGKATLTADKSSSTAYMQLSSLTSEDSAVYFCARRGYGYLAYWGQGTLVTVSA
VL: DIVMTQSHKFMSTSVGDRVSITCKASQDVSTAVAWYQQKPGQSPKLLIYSASYRYTGVPDRFTGSGSGTDFTFTISSVQAEDLAVYYCQQHYSTPWTFGGGTKLEIK
notes: mIgG1
B7: 15C6 (antibody, IgG1, V domains shown)
VH: B6 VH
VL: B6 VL with W96Y
notes: mIgG1
B8: 16F10 (antibody, IgG1, V domains shown)
VH: DVQLQESGPGLVKPSQSLSLTCSVTGYSITSGYYWNWIRQFPGNKLEWMGYISYDGSNNYNPSLKNRISITRDTSKNQFFLKLNSVTTEDTATYYCASIYGNYYAMDYWGQGTSVTVSS
VL: QIVLTQSPAIMSASPGEKVTMTCSASSSVSYMHWYQQKSGTSPKRWIYDTSKLASGVPARFSGSGSGTSYSLTISSMEAEDAATYYCQQWSSNPPTFGSGTKLEIK
notes: mIgG1
B9: 3A9 (antibody, IgG1, V domains shown)
VH: QVQLKQSGAELVRPGASVKLSCKASGYTFTDYYINWVKQRPGQGLEWIARIYPGSGNTYYNEKFKGKATLTAEKSSSTAYMQLSSLTSEDSAVYFCARGYGNSDYWGQGTTLTVSS
VL: DILLTQSPAILSVSPGERVSFSCRASQSIGTRIHWYQQRTNGSPRLLIKYASESISGIPSRFSGSGSGTDFTLSINSVESEDIADYYCQQSNSWPYTFGGGTKLEIK
notes: mIgG1
B10: 21C7 (antibody, IgG1, V domains shown)
VH: QIQLQQSGPELVKPGASVKISCKASGYAFSSSWMNWVKKRPGKGLEWIGRIYPGDGDANYNGKFKGKATLTADKSSSTAYMQLSSLTSEDSAVYFCAGEGHYYGSGYRWYLDVWGTGTTVTVSS
VL: DIQMTQSPASLSVSVGETVTITCRASENIYSNLAWYQQKQGKSPQLLVYAATNLADGVPSRFSGSGSGTQYSLKINSLQSEDFGSYYCQHFRGAPFTFGSGTKLEIK
notes: mIgG1
B11: 831 (antibody, IgG1, V domains shown)
VH: DVQLQESGPDLVKPSQSLSVTCTVTGYSITSGYSWHWIRQFPGNKLEWMGYIHYSGSTNYNPSLKSRISITRDTSKNQFFLQLSSVTTEDTATYYCASGPHRYDGVWFAYWGQGTLVTVSS
VL: EIVLTQSPTTMAASPGEKITITCSASSSISSNYLHWYQQKPGFSPKLLIYRTSNLASGVPARFSGSGSGTSYSLTIGTMEAEDVATYYCQQGTNIPLTFGAGTKLEIK
B12: 15B6 (antibody, IgG1, V domains shown)
VH: QVQLQQPGAELVKPGASVKLSCKASGYTFTSYWMHWVKQRPGQGLEWIGMIHPNSGSTNYNEKFKSKATLTVDKSSSTAYMQLSSLTSEDSAVYYCARKRGGLGDYWGQGTSVTVSS
VL: DIVLTQSPASLAVSLGQRATISCRASKSVSTSGYSYMHWYQQKPGQPPKLLIYLASNLESGVPARFSGSGSGTDFTLNIHPVEEEDAATYYCQHSRELPYTFGGGTKLEIK
B13: 10B1 (antibody, IgG1, V domains shown)
VH: B3 VH with R99N, R100Y, A102S, G103S, D104Y, G105P, D107A, T114L, L115V, S119A
VL: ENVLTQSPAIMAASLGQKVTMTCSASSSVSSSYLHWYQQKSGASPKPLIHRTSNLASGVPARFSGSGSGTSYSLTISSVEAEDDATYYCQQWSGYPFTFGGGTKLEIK
B14: 16E1 (antibody, IgG1, V domains shown)
VH: B3 VH with R99G, R100Y, A102S, G103S, D104Y, D107A, T114L, L115V, S119A
VL: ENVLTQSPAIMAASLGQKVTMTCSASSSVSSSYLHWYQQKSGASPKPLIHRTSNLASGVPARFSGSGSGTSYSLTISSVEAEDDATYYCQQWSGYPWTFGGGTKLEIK
B15: 11.5.1 D265A (antibody, V domains shown)
VH: EVQLQESGPSLVKPSQTLSLTCSVTGDSITSAYWNWIRKFPGNKLEYMGYISYSGSTYFNPSLKSRISITRNTSKNQYYLQLNSVTTEDTATYYCARSHYYGYYFDYWGHGTTLTVSS
VL: DIVLTQSPASLAVSLGQRATISCRASETIDSYGDSLMHWYQQKAGQPPKLLIYRASNLESGIPARFSGSGSRTDFTLTINPVEADDVATYYCQQTDEDPYTFGGGTKLEIK

Biological target: T1, monomeric soluble human BTLA extracellular domain (BTLA K31-R151) (human, UniProt Q7Z6A9 31-151)
T1 construct: also called hBTLA; monomeric BTLA
Assay: SPR 37C, mAb captured, BTLA ECD analyte;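 note: Anti-BTLA mouse antibodies captured on a sensor chip via polyclonal anti-mouse IgG, isotype control antibody in reference channel, rates fitted after reference and blank subtraction to derive Kd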
Throughout, for AntiCD3/CD28 (CD4 T cell proliferation) repeat 1: test concentration or dose not given here.
Throughout, for AntiCD3/CD28 (CD4 T cell proliferation) repeat 2: test concentration or dose not given here.
Throughout, for AntiCD3/CD28 (CD69+ CD4 T cells) repeat 1: test concentration or dose not given here.
Throughout, for AntiCD3/CD28 (CD69+ CD4 T cells) repeat 2: test concentration or dose not given here.
Throughout, for MLR (CD4 T cell proliferation) repeat 1: test concentration or dose not given here.
Throughout, for MLR (CD4 T cell proliferation) repeat 2: test concentration or dose not given here.
Throughout, for T cell reporter (NFκB signaling): test concentration or dose not given here.

| Binder | Kd | koff | kon |
| --- | --- | --- | --- |
| B1 | 722 nM | 0.155 s⁻¹ | 215000 M⁻¹ s⁻¹ |
| B2 | 2930 nM | 0.79 s⁻¹ | 270000 M⁻¹ s⁻¹ |
| B3 | 1710 nM | 0.347 s⁻¹ | 203000 M⁻¹ s⁻¹ |
| B4 | 3.21 nM | 0.00185 s⁻¹ | 577000 M⁻¹ s⁻¹ |
| B5 | 8.17 nM | 0.0044 s⁻¹ | 538000 M⁻¹ s⁻¹ |
| B6 | 40.2 nM | 0.0166 s⁻¹ | 413000 M⁻¹ s⁻¹ |
| B7 | 718 nM | 0.138 s⁻¹ | 193000 M⁻¹ s⁻¹ |
| B8 | 48.8 nM | 0.0283 s⁻¹ | 581000 M⁻¹ s⁻¹ |
| B9 | 4010 nM | 1.63 s⁻¹ | 406000 M⁻¹ s⁻¹ |
| B10 | 43.6 nM | 0.0406 s⁻¹ | 930000 M⁻¹ s⁻¹ |

Biological target: chimeric BTLA of humanised-BTLA mice (human extracellular region, murine transmembrane and signaling … (human; mouse, UniProt Q7TSA3 184-306, limits assumed)
Sequence (Q7TSA3 other isoform, or with tags, fused parts or gaps mutant limits assumed): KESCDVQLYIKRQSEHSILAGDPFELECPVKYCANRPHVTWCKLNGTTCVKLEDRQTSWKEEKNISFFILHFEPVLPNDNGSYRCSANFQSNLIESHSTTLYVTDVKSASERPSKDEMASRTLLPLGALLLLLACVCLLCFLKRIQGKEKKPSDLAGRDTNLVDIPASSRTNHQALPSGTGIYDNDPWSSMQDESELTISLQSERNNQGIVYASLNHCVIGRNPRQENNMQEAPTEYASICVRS
Assay: cell-based or functional assay

| Binder | AntiCD3/CD28 (CD4 T cell proliferation) repeat 1 | AntiCD3/CD28 (CD4 T cell proliferation) repeat 2 | AntiCD3/CD28 (CD69+ CD4 T cells) repeat 1 | AntiCD3/CD28 (CD69+ CD4 T cells) repeat 2 | MLR (CD4 T cell proliferation) repeat 1 | MLR (CD4 T cell proliferation) repeat 2 |
| --- | --- | --- | --- | --- | --- | --- |
| B11 | 10 % inhibition | 8 % inhibition | 50 % inhibition | 53 % inhibition | 25 % inhibition | 34 % inhibition |
| B1 | 5 % inhibition | 9 % inhibition | 30 % inhibition | 40 % inhibition | 28 % inhibition | 23 % inhibition |
| B12 | 9 % inhibition | 16 % inhibition | 13 % inhibition | 20 % inhibition | 7 % inhibition | 13 % inhibition |
| B3 | 14 % inhibition | 22 % inhibition | 43 % inhibition | 52 % inhibition | 10 % inhibition | 17 % inhibition |
| B13 | 8 % inhibition | 14 % inhibition | 24 % inhibition | 36 % inhibition | 16 % inhibition | 25 % inhibition |
| B14 | 4 % inhibition | 8 % inhibition | 9 % inhibition | 23 % inhibition | 33 % inhibition | 8 % inhibition |
| B4 | 14 % inhibition | 18 % inhibition | 47 % inhibition | 41 % inhibition | 33 % inhibition | 30 % inhibition |
| B5 | 20 % inhibition | 4 % inhibition | 51 % inhibition | 47 % inhibition | 33 % inhibition | 23 % inhibition |
| B15 | -3 % inhibition | -9 % inhibition | -47 % inhibition | -26 % inhibition | -3 % inhibition | 1 % inhibition |
| B6 | 14 % inhibition | 17 % inhibition | 28 % inhibition | 38 % inhibition | 23 % inhibition | 29 % inhibition |
| B7 | 2 % inhibition | -2 % inhibition | 12 % inhibition | 19 % inhibition | 19 % inhibition | 8 % inhibition |
| B9 | 9 % inhibition | 9 % inhibition | 22 % inhibition | 34 % inhibition | 7 % inhibition | 24 % inhibition |
| B10 | 10 % inhibition | -4 % inhibition | 39 % inhibition | 35 % inhibition | 8 % inhibition | 17 % inhibition |

Biological target: full length human BTLA expressed on cells (human, UniProt Q7Z6A9 31-289)
Assay: cell-based or functional assay

| Binder | T cell reporter (NFκB signaling) |
| --- | --- |
| B11 | 24 % inhibition |
| B1 | 30 % inhibition |
| B12 | 21 % inhibition |
| B3 | 25 % inhibition |
| B13 | 27 % inhibition |
| B14 | 22 % inhibition |
| B4 | 23 % inhibition |
| B5 | 24 % inhibition |
| B15 | -13 % inhibition |
| B6 | 20 % inhibition |
| B7 | 9 % inhibition |
| B9 | 27 % inhibition |
| B10 | 23 % inhibition |
